Results as given in patent publication US20230067960A1 (VONSUN PHARMATECH, published 2023).
Non-standard residues stand in square brackets, D forms with d. No end group written: not given here. R1 = not defined here; R2 = not defined here; Aib = CC(C)(N)C(=O)O

Columns and labels:
Assay in all cases: cell-based or functional assay
[1] = target: glucagon-like peptide-1 receptor
glucagon receptor = target: glucagon receptor
[2] = target: T1, gastric inhibitory peptide receptor
T1 sequence (P48546 whole entry, species assumed, looked up): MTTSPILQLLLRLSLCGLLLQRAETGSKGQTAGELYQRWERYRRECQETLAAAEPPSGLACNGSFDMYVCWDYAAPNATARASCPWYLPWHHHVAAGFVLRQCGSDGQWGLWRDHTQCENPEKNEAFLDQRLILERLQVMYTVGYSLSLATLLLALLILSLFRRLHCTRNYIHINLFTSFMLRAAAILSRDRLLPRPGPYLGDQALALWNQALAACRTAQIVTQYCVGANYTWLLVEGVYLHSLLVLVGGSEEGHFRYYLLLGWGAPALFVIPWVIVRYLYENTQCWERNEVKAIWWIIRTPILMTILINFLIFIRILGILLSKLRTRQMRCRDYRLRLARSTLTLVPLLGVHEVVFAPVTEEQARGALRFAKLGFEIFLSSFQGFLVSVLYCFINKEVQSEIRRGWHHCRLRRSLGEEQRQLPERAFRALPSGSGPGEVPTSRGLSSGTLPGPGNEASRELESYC

Binder	In vitro activity relative to native polypeptide (%), relative to GLP-1 (cAMP HTRF, from EC50) [1]	In vitro activity relative to native polypeptide (%), relative to GCG (cAMP HTRF, from EC50) (glucagon receptor)	In vitro activity relative to native polypeptide (%), relative to GIP (cAMP HTRF, from EC50) [2]
H[Aib]QGTFTSDLSLAQEKEAVRLFIEWLREGGPSSGAPPPS (ends and bridges not checked) [triple agonist peptide of SEQ ID NO: 8]	123%	1.21%	2.02%
H[Aib]QGTFTSDLSRAMEKEAVRLFIEWLIEGGPSSGAPPPS (ends and bridges not checked) [triple agonist peptide of SEQ ID NO: 3]	67.7%	12.2%	12.1%
H[Aib]QGTFTSDLSRAMEKEAVRLFIEWLIDGGPSSGAPPPS (ends and bridges not checked) [triple agonist peptide of SEQ ID NO: 4]	71.4%	2.17%	7.37%
H[Aib]QGTFTSDLSRAMEKIAVRLFIEWLREGGPSSGAPPPS (ends and bridges not checked) [triple agonist peptide of SEQ ID NO: 1]	64.7%	1.33%	3.99%
H[Aib]QGTFTSDLSRAMEKEAVRLFIEWLREGGPSSGAPPPS (ends and bridges not checked) [triple agonist peptide of SEQ ID NO: 2]	104%	25.1%	34%
H[Aib]QGTFTSDLSRAMEK(R1)IAVRLFIEWLIEGGPSSGAPPPS-NH2 (reading uncertain) [triple agonist peptide of SEQ ID NO: 11, chemically modified with R1 side chain]	191%	3.89%	2.53%
H[Aib]QGTFTSDLSRAMEKIAVRLFIEWLIEGGPSSGAPPPS (ends and bridges not checked) [triple agonist peptide of SEQ ID NO: 6]	116%	0.89%	3.27%
H[Aib]QGTFTSDLSRAMEK(R2)IAVRLFIEWLIEGGPSSGAPPPS-NH2 (reading uncertain) [triple agonist peptide of SEQ ID NO: 13, chemically modified with R2 side chain]	217%	16.1%	9.83%
H[Aib]QGTFTSDLSRALEKIAARLFIEWLIEGGPSSGAPPPS (ends and bridges not checked) [triple agonist peptide of SEQ ID NO: 7]	47.5%	18.3%	5.74%
H[Aib]QGTFTSDLSAAMEKIAVRLFIEWLREGGPSSGAPPPS (ends and bridges not checked) [triple agonist peptide of SEQ ID NO: 5]	38.4%	0.72%	1.99%
H[Aib]QGTFTSDLSRYLEKEAVRLFIEWLIDGGPSSGAPPPS (ends and bridges not checked) [triple agonist peptide of SEQ ID NO: 10]	71.6%	21.8%	94.7%
H[Aib]QGTFTSDLSLEQEKIAVRLFIEWLREGGPSSGAPPPS (ends and bridges not checked) [triple agonist peptide of SEQ ID NO: 9]	136%	20.1%	95.8%
H[Aib]QGTFTSDLSRALEK(R2)IAARLFIEWLIEGGPSSGAPPPS-NH2 (reading uncertain) [triple agonist peptide of SEQ ID NO: 14, chemically modified with R2 side chain]	57%	0.49%	3.38%
